Target: PTCH1-GFP (mouse) (UniProt Q61115)
Assay: cell surface binding of BOC-Fc proteins to COS7 cells expressing PTCH1-GFP, anti-Fc HRP

Sequence of UniProt Q61115 (Q61115 whole entry): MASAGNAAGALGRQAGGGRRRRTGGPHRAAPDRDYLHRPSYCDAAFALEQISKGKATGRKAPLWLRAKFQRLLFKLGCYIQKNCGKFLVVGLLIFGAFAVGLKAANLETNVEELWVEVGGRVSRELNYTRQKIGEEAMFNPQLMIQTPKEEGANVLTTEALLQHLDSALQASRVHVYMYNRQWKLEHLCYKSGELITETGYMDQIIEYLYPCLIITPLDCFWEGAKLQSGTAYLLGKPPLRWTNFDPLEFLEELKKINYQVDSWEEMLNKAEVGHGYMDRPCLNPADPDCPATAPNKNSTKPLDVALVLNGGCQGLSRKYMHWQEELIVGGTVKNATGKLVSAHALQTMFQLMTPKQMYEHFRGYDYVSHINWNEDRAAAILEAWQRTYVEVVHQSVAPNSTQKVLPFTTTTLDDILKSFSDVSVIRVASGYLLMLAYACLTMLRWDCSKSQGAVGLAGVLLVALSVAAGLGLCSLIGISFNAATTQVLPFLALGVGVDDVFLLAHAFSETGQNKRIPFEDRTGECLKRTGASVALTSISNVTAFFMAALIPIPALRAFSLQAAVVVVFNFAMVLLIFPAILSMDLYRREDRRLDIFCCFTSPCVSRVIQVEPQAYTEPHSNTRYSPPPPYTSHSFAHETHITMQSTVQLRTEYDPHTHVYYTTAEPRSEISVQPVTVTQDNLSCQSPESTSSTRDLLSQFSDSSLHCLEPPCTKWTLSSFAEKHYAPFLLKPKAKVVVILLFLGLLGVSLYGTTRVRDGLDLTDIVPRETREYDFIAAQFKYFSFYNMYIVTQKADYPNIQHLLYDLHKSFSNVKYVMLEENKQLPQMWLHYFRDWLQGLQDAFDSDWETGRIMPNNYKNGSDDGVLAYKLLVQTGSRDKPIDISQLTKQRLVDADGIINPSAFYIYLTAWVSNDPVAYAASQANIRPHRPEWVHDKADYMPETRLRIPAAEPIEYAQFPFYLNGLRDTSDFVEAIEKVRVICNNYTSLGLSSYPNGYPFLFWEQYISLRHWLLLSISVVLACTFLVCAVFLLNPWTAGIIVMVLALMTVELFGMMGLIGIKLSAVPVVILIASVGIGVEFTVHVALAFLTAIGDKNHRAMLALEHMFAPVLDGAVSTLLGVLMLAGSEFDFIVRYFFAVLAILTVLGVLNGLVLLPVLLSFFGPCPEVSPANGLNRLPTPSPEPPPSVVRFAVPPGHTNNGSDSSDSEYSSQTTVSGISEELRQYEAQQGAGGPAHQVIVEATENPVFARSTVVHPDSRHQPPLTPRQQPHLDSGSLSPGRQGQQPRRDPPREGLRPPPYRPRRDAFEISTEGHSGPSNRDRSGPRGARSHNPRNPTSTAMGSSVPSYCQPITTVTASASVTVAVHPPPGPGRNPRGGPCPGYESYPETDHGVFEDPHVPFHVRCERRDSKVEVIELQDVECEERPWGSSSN

For “BOC-Fc construct containing the FNIIIa domain alone (Fc fusion)”, the binding level relative to BOC ecto-Fc was 60%.

For “BOC-Fc construct containing the FNIIIb domain alone (Fc fusion)”, the binding level relative to BOC ecto-Fc was 60%.

Reference: patent US20140079713A1
